B1: Protein FAM9B (Homo sapiens), Q8IZU0 (parent)
chain: MAAWGKKHAGKDPVRDECEERNRFTETREEDVTDEHGEREPFAETDEHTGANTKKPEDTAEDLTAKRKRMKMDKTCSKTKNKSKHALRKKQLKRQKRDYIHSLKLLNVLEEYITDEQKEEEEEEGEEEELIRIFQEQQKKWQQYRSVRRERLKEMKLLRDQFVKALEDFEDLCDRVFSDEDSELDN
partner: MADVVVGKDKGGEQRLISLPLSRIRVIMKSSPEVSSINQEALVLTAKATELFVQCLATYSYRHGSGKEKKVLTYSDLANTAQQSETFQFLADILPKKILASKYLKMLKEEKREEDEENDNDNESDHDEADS
B2: TNFAIP3-interacting protein 3 (Homo sapiens), Q96KP6 (parent)
chain: MAHFVQGTSRMIAAESSTEHKECAEPSTRKNLMNSLEQKIRCLEKQRKELLEVNQQWDQQFRSMKELYERKVAELKTKLDAAERFLSTREKDPHQRQRKDDRQREDDRQRDLTRDRLQREEKEKERLNEELHELKEENKLLKGKNTLANKEKEHYECEIKRLNKALQDALNIKCSFSEDCLRKSRVEFCHEEMRTEMEVLKQQVQIYEEDFKKERSDRERLNQEKEELQQINETSQSQLNRLNSQIKACQMEKEKLEKQLKQMYCPPCNCGLVFHLQDPWVPTGPGAVQKQREHPPDYQWYALDQLPPDVQHKANGLSSVKKVHP
B3: Centrin-1 (Homo sapiens), Q12798 (parent)
chain: MASGFKKPSAASTGQKRKVAPKPELTEDQKQEVREAFDLFDVDGSGTIDAKELKVAMRALGFEPRKEEMKKMISEVDREGTGKISFNDFLAVMTQKMSEKDTKEEILKAFRLFDDDETGKISFKNLKRVANELGENLTDEELQEMIDEADRDGDGEVNEEEFLRIMKKTSLY
partner: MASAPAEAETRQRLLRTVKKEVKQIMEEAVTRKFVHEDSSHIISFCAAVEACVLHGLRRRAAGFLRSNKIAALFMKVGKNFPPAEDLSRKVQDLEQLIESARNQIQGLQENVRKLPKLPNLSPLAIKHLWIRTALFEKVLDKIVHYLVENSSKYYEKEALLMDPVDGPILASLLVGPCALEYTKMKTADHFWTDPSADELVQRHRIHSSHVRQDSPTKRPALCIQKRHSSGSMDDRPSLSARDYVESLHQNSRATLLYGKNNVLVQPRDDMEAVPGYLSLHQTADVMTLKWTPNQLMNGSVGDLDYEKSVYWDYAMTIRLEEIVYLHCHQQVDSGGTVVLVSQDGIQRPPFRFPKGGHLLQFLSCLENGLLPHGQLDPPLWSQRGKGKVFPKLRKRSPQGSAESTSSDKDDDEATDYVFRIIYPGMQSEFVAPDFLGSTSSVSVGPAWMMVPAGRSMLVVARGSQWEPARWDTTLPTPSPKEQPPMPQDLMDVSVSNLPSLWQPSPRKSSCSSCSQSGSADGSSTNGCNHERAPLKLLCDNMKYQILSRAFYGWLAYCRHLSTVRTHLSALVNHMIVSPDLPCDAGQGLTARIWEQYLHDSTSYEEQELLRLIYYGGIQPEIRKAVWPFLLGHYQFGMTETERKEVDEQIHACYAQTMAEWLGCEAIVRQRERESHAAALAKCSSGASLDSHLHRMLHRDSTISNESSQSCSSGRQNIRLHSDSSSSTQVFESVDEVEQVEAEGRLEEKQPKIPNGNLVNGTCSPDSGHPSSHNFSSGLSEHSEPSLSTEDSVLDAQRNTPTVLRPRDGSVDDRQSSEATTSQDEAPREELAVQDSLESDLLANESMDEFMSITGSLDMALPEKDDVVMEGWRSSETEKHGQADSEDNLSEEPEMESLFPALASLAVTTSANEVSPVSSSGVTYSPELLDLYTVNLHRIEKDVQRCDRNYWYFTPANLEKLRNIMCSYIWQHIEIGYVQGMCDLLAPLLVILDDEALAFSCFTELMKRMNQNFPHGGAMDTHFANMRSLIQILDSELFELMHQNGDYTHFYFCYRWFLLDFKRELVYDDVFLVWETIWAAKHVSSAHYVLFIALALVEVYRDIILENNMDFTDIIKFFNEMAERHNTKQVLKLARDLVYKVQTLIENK
B4: Four and a half LIM domains protein 2 (Homo sapiens), Q14192 (parent)
chain: MTERFDCHHCNESLFGKKYILREESPYCVVCFETLFANTCEECGKPIGCDCKDLSYKDRHWHEACFHCSQCRNSLVDKPFAAKEDQLLCTDCYSNEYSSKCQECKKTIMPGTRKMEYKGSSWHETCFICHRCQQPIGTKSFIPKDNQNFCVPCYEKQHAMQCVQCKKPITTGGVTYREQPWHKECFVCTACRKQLSGQRFTARDDFAYCLNCFCDLYAKKCAGCTNPISGLGGTKYISFEERQWHNDCFNCKKCSLSLVGRGFLTERDDILCPDCGKDI
partner: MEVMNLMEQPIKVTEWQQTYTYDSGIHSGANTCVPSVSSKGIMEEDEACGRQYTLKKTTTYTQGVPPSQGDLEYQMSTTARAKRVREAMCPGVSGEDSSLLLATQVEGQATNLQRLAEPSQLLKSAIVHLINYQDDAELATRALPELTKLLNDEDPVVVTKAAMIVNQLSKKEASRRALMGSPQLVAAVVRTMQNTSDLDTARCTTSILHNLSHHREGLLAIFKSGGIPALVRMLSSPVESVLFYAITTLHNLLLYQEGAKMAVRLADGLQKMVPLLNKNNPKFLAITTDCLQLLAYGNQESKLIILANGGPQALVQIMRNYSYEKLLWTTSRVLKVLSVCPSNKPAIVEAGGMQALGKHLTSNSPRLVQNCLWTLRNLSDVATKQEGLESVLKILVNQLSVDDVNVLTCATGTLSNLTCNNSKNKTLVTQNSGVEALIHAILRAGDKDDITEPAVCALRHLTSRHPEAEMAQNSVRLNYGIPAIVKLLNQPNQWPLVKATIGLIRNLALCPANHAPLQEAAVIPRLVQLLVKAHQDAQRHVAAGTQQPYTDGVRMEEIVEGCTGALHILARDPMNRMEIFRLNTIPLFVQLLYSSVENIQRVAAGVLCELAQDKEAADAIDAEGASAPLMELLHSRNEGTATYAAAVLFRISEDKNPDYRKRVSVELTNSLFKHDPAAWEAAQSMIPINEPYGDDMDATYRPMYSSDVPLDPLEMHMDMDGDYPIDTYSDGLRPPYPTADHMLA

Variants of: B1
Conditions: with chrc1_human CHRAC1, Q9NRG0

effect of a mutation on the interaction | Variant
with no effect | R23H

Variants of: B2
Conditions: with taxb1_human TAX1BP1, Q86VP1
Chain of taxb1_human TAX1BP1, Q86VP1 (Q86VP1 whole entry): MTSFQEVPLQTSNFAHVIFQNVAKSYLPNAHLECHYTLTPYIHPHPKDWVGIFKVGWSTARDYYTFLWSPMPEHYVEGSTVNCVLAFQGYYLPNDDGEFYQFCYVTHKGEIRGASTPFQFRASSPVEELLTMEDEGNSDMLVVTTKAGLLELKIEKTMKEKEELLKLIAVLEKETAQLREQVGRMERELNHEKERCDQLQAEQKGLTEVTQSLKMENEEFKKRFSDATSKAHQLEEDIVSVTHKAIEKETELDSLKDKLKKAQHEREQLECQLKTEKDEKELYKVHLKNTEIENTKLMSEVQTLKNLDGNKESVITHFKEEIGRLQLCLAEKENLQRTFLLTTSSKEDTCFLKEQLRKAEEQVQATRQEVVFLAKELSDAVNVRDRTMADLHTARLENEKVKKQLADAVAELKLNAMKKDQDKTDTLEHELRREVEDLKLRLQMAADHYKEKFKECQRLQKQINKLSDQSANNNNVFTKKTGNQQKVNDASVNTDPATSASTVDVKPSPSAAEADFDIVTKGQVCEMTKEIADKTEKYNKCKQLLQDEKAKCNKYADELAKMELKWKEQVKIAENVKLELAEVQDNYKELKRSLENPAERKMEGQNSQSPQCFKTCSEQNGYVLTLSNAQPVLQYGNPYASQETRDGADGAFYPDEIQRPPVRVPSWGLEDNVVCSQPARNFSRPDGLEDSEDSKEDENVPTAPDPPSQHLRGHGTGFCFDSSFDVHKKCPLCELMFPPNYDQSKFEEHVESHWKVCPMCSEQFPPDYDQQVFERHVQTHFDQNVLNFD

effect of a mutation on the interaction | Variant
with no effect | K99E

Variants of: B3
Conditions: with sgsm1_human SGSM1, Q2NKQ1

effect of a mutation on the interaction | Variant
with no effect | M72T

Variants of: B4
Conditions: with plak_human JUP

effect of a mutation on the interaction | Variant
disrupting interaction strength | N95K
with no effect | A37S

— IntAct's records for PubMed 31515488
